Results on two molecules are retold here after article PMC3338918 (Angiogenesis, 2012).

In the test the target is T1, hVEGFR3-hFc (human, UniProt P35916 25-775).
T1 construct: human VEGFR3; source: bought: R&D Systems
T1 sequence (looked up): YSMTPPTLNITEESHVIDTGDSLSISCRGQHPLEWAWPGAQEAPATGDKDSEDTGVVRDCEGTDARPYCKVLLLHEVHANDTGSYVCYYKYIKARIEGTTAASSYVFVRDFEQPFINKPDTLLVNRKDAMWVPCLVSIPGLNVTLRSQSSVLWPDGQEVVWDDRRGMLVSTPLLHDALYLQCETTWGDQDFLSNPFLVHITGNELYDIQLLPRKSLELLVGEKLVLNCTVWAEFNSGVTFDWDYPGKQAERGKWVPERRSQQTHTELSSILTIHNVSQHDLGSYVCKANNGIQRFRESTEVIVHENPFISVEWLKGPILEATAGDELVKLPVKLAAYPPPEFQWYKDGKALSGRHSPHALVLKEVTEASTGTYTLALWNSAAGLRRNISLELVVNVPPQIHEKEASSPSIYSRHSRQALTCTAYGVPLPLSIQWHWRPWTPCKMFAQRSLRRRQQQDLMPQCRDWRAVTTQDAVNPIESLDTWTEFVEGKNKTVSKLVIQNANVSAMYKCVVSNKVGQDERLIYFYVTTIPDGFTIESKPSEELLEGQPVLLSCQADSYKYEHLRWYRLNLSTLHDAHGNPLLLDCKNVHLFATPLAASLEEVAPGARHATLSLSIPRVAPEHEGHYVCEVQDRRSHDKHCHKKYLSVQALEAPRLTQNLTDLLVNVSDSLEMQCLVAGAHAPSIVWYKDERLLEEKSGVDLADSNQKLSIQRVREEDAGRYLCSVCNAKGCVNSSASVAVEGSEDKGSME
Description: SPR; Biacore 3000, CM5 chip, 25°C, HBS-T (10 mM Hepes, 150 mM NaCl, 3.4 mM EDTA, 0.05% polysorbate 20, pH 7.4); VEGF Trap or receptor-Fc captured at low density on amine-coupled Protein A, ligands injected (1.0–0.062 nM VEGF-A, 2.5–0.156 nM VEGF-B(10-108), 5.0–0.078 nM PlGF); kd of VEGF-A ligands by the 'fixed kd' procedure on a Biacore 2000 (~2–3 h); KD = kd/ka. The conditions noted are these: both partners purified. For orientation: SPR reads the build-up and loss of mass on a sensor chip optically.

B1: human VEGF-C (ligand, UniProt P49767 112-227, looked up)
chain: AHYNTEILKSIDNEWRKTQCMPREVCIDVGKEFGVATNTFFKPPCVSVYRCGGCCNSEGLQCMNTSTSYLSKTLFEITVPLSQGPKPVTISFANHTSCRCMSKLDVYRQVHSIIRR
notes: human VEGF-C; source: bought: R&D Systems
B1: the binding result is “binds”.

B2: human VEGF-D (ligand, UniProt O43915 89-205, looked up)
chain: FAATFYDIETLKVIDEEWQRTQCSPRETCVEVASELGKSTNTFFKPPCVNVFRCGGCCNEESLICMNTSTSYISKQLFEISVPLTSVPELVPVKVANHTGCKCLPTAPRHPYSIIRR
notes: human VEGF-D; source: bought: R&D Systems
For B2, the binding result was “binds”.
